Laboratory results: patent publication US20240261333A1, “NOVEL TARGETS FOR ENHANCING ANTI-TUMOR IMMUNITY” (THE BROAD INSTITUTE, INC., priority 2021, published 2024)

T1: B3GNT2 (Homo sapiens, UniProt Q9NY97)
T1 construct: The respective ORFs of candidate genes [CD274 (NM_014143), MCL1 (NM_021960), JUNB (NM_002229), and B3GNT2 (NM_006577)] were synthesized; expressed in transfected cells; host or cells: A375 melanoma cells (lentiviral ORF overexpression)
T1 sequence (Q9NY97 1-397): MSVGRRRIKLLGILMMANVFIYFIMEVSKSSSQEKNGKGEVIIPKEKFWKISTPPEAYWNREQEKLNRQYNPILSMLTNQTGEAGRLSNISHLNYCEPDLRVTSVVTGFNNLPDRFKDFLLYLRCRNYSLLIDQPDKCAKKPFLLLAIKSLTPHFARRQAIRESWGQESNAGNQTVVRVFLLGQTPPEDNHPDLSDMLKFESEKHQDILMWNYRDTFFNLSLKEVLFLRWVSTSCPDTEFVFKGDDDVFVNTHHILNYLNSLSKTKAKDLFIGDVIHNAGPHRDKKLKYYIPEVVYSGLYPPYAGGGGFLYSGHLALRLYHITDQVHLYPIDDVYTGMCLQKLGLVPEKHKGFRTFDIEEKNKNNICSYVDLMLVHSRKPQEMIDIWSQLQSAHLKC


Biological target: T1, B3GNT2
Test: Co-IP of FLAG-tagged B3GNT2 followed by mass spectrometry
Assay type: cell-based
Design: C-term IgG / C-term flag: unit not given here
How it was run: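 Co-purifying proteins were identified by fractionated nano-LC–MS/MS on an Orbitrap Elite, run data-dependent. Beforehand, lysates in 1% Triton X-100/HEPES buffer were incubated overnight at 4° C with anti-FLAG or […] and pulled down on Protein A/G magnetic beads for 4 h. Duplicate biological replicates.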

[1] = Co-IP followed by mass spectrometry of B3GNT2, C-term tag, FLAG pull-down
[2] = Co-IP followed by mass spectrometry of B3GNT2, C-term tag, IgG pull-down
[3] = Co-IP followed by mass spectrometry of B3GNT2, N-term tag, FLAG pull-down
[4] = Co-IP followed by mass spectrometry of B3GNT2, N-term tag, IgG pull-down

| C-term flag [1] | C-term IgG [2] | N-term FLAG [3] | N-term IgG [4] | C-term flag (Co-IP with FLAG antibody, C-terminally FLAG-tagged B3GNT2, mass spectrometry count, unit not given) | N-term FLAG (Co-IP with FLAG antibody, N-terminally FLAG-tagged B3GNT2, mass spectrometry count, unit not given) | C-term IgG (Co-IP with IgG control antibody, C-terminally FLAG-tagged B3GNT2, mass spectrometry count, unit not given) | N-term IgG (Co-IP with IgG control antibody, N-terminally FLAG-tagged B3GNT2, mass spectrometry count, unit not given) | Molecule |
| --- | --- | --- | --- | --- | --- | --- | --- | --- |
| 3 | 0 | 2 | 0 |  |  |  |  | TELO2 (protein) MEPAPSEVRLAVREAIHALSSSEDGGHIFCTLESLKRYLGEMEPPALPREKEEFASAHFSPVLRCLASRLSPAWLELLPHGRLEELWASFFLEGPADQAFLVLMETIEGAAGPSFRLMKMARLLARFLREGRLAVLMEAQCRQQTQPGFILLRETLLGKVVALPDHLGNRLQQENLAEFFPQNYFRLLGEEVVRVLQAVVDSLQGGLDSSVSFVSQVLGKACVHGRQQEILGVLVPRLAALTQGSYLHQRVCWRLVEQVPDRAMEAVLTGLVEAALGPEVLSRLLGNLVVKNKKAQFVMTQKLLFLQSRLTTPMLQSLLGHLAMDSQRRPLLLQVLKELLETWGSSSAIRHTPLPQQRHVSKAVLICLAQLGEPELRDSRDELLASMMAGVKCRLDSSLPPVRRLGMIVAEVVSARIHPEGPPLKFQYEEDELSLELLALASPQPAGDGASEAGTSLVPATAEPPAETPAEIVDGGVPQAQLAGSDSDLDSDDEFVPYDMSGDRELKSSKAPAYVRDCVEALTTSEDIERWEAALRALEGLVYRSPTATREVSVELAKVLLHLEEKTCVVGFAGLRQRALVAVTVTDPAPVADYLTSQFYALNYSLRQRMDILDVLTLAAQELSRPGCLGRTPQPGSPSPNTPCLPEAAVSQPGSAVASDWRVVVEERIRSKTQRLSKGGPRQGPAGSPSRFNSVAGHFFFPLLQRFDRPLVTFDLLGEDQLVLGRLAHTLGALMCLAVNTTVAVAMGKALLEFVWALRFHIDAYVRQGLLSAVSSVLLSLPAARLLEDLMDELLEARSWLADVAEKDPDEDCRTLALRALLLLQRLKNRLLPPASP |
| 3 | 0 | 2 | 0 |  |  |  |  | PPFIBP1 (protein) MMSDASDMLAAALEQMDGIIAGSKALEYSNGIFDCQSPTSPFMGSLRALHLVEDLRGLLEMMETDEKEGLRCQIPDSTAETLVEWLQSQMTNGHLPGNGDVYQERLARLENDKESLVLQVSVLTDQVEAQGEKIRDLEFCLEEHREKVNATEEMLQQELLSRTSLETQKLDLMAEISNLKLKLTAVEKDRLDYEDKFRDTEGLIQEINDLRLKVSEMDSERLQYEKKLKSTKDELASLKEQLEEKESEVKRLQEKLVCKMKGEGVEIVDRDIEVQKMKKAVESLMAANEEKDRKIEDLRQCLNRYKKMQDTVVLAQGKDGEYEELLNSSSISSLLDAQGFSDLEKSPSPTPVMGSPSCDPFNTSVPEEFHTTILQVSIPSLLPATVSMETSEKSKLTPKPETSFEENDGNIILGATVDTQLCDKLLTSSLQKSSSLGNLKKETSDGEKETIQKTSEDRAPAESRPFGTLPPRPPGQDTSMDDNPFGTRKVRSSFGRGFFKIKSNKRTASAPNLAETEKETAEHLDLAGASSRPKDSQRNSPFQIPPPSPDSKKKSRGIMKLFGKLRRSQSTTFNPDDMSEPEFKRGGTRATAGPRLGWSRDLGQSNSDLDMPFAKWTKEQVCNWLMEQGLGSYLNSGKHWIASGQTLLQASQQDLEKELGIKHSLHRKKLQLALQALGSEEETNHGKLDFNWVTRWLDDIGLPQYKTQFDEGRVDGRMLHYMTVDDLLSLKVVSVLHHLSIKRAIQVLRINNFEPNCLRRRPSDENTIAPSEVQKWTNHRVMEWLRSVDLAEYAPNLRGSGVHGGLMVLEPRFNVETMAQLLNIPPNKTLLRRHLATHFNLLIGAEAQHQKRDAMELPDYVLLTATAKVKPKKLAFSNFGNLRKKKQEDGEEYVCPMELGQASGSASKKGFKPGLDMRLYEEDDLDRLEQMEDSEGTVRQIGAFSEGINNLTHMLKEDDMFKDFAARSPSASITDEDSNV |
| 3 | 0 | 2 | 0 |  |  |  |  | EMILIN1 (protein) ASYPPRGFSLYTGSSGALSPGGPQAQIAPRPASRHRNWCAYVVTRTVSCVLEDGVETYVKYQPCAWGQPQCPQSIMYRRFLRPRYRVAYKTVTDMEWRCCQGYGGDDCAESPAPALGPASSTPRPLARPARPNLSGSSAGSPLSGLGGEGPGESEKVQQLEEQVQSLTKELQGLRGVLQGLSGRLAEDVQRAVETAFNGRQQPADAAARPGVHETLNEIQHQLQLLDTRVSTHDQELGHLNNHHGGSSSSGGSRAPAPASAPPGPSEELLRQLEQRLQESCSVCLAGLDGFRRQQQEDRERLRAMEKLLASVEERQRHLAGLAVGRRPPQECCSPELGRRLAELERRLDVVAGSVTVLSGRRGTELGGAAGQGGHPPGYTSLASRLSRLEDRFNSTLGPSEEQEESWPGAPGGLSHWLPAARGRLEQLGGLLANVSGELGGRLDLLEEQVAGAMQACGQLCSGAPGEQDSQVSEILSALERRVLDSEGQLRLVGSGLHTVEAAGEARQATLEGLQEVVGRLQDRVDAQDETAAEFTLRLNLTAARLGQLEGLLQAHGDEGCGACGGVQEELGRLRDGVERCSCPLLPPRGPGAGPGVGGPSRGPLDGFSVFGGSSGSALQALQGELSEVILSFSSLNDSLNELQTTVEGQGADLADLGATKDRIISEINRLQQEATEHATESEERFRGLEEGQAQAGQCPSLEGRLGRLEGVCERLDTVAGGLQGLREGLSRHVAGLWAGLRETNTTSQMQAALLEKLVGGQAGLGRRLGALNSSLQLLEDRLHQLSLKDLTGPAGEAGPPGPPGLQGPPGPAGPPGSPGKDGQEGPIGPPGPQGEQGVEGAPAAPVPQVAFSAALSLPRSEPGTVPFDRVLLNDGGYYDPETGVFTAPLAGRYLLSAVLTGHRHEKVEAVLSRSNQGVARVDSGGYEPEGLENKPVAESQPSPGTLGVFSLILPLQAGDTVCVDLVMGQLAHSEEPLTIFSGALLYGDPELEHA |
|  |  |  |  | 7 | 29 | 0 | 0 | PHGDH (protein) AFANLRKVLISDSLDPCCRKILQDGGLQVVEKQNLSKEELIAELQDCEGLIVRSATKVTADVINAAEKLQVVGRAGTGVDNVDLEAATRKGILVMNTPNGNSLSAAELTCGMIMCLARQIPQATASMKDGKWERKKFMGTELNGKTLGILGLGRIGREVATRMQSFGMKTIGYDPIISPEVSASFGVQQLPLEEIWPLCDFITVHTPLLPSTTGLLNDNTFAQCKKGVRVVNCARGGIVDEGALLRALQSGQCAGAALDVFTEEPPRDRALVDHENVISCPHLGASTKEAQSRCGEEIAVQFVDMVKGKSLTGVVNAQALTSAFSPHTKPWIGLAEALGTLMRAWAGSPKGTIQVITQGTSLKNAGNCLSPAVIVGLLKEASKQADVNLVNAKLLVKEAGLNVTTSHSPAAPGEQGFGECLLAVALAGAPYQAVGLVQGTTPVLQGLNGAVFRPEVPLRRDLPLLLFRTQTSDPAMLPTMIGLLAEAGVRLLSYQTSLVSDGETWHVMGISSLLPSLEAWKQHVTEAFQFHF |
| 8 | 5 | 6 | 5 |  |  |  |  | HNRNPM (protein) AAGVEAAAEVAATEIKMEEESGAPGVPSGNGAPGPKGEGERPAQNEKRKEKNIKRGGNRFEPYANPTKRYRAFITNIPFDVKWQSLKDLVKEKVGEVTYVELLMDAEGKSRGCAVVEFKMEESMKKAAEVLNKHSLSGRPLKVKEDPDGEHARRAMQKVMATTGGMGMGPGGPGMITIPPSILNNPNIPNEIIHALQAGRLGSTVFVANLDYKVGWKKLKEVFSMAGVVVRADILEDKDGKSRGIGTVTFEQSIEAVQAISMFNGQLLFDRPMHVKMDERALPKGDFFPPERPQQLPHGLGGIGMGLGPGGQPIDANHLNKGIGMGNIGPAGMGMEGIGFGINKMGGMEGPFGGGMENMGRFGSGMNMGRINEILSNALKRGEIIAKQGGGGGGGSVPGIERMGPGIDRLGGAGMERMGAGLGHGMDRVGSEIERMGLVMDRMGSVERMGSGIERMGPLGLDHMASSIERMGQTMERIGSGVERMGAGMGFGLERMAAPIDRVGQTIERMGSGVERMGPAIERMGLSMERMVPAGMGAGLERMGPVMDRMATGLERMGANNLERMGLERMGANSLERMGLERMGANSLERMGPAMGPALGAGIERMGLAMGGGGGASFDRAIEMERGNFGGSFAGSFGGAGGHAPGVARKACQIFVRNLPFDFTWKMLKDKFNECGHVLYADIKMENGKSKGCGVVKFESPEVAERACRMMNGMKLSGREIDVRIDRNA |
| 5 | 3 | 3 | 2 |  |  |  |  | S100A7 (protein) SNTQAERSIIGMIDMFHKYTRRDDKIEKPSLLTMMKENFPNFLSACDKKGTNYLADVFEKKDKNEDKKIDFSEFLSLLGDIATDYHKQSHGAAPCSGGSQ |
| 4 | 2 | 5 | 4 |  |  |  |  | YTHDF2 (protein) SASSLLEQRPKGQGNKVQNGSVHQKDGLNDDDFEPYLSPQARPNNAYTAMSDSYLPSYYSPSIGFSYSLGEAAWSTGGDTAMPYLTSYGQLSNGEPHFLPDAMFGQPGALGSTPFLGQHGFNFFPSGIDFSAWGNNSSQGQSTQSSGYSSNYAYAPSSLGGAMIDGQSAFANETLNKAPGMNTIDQGMAALKLGSTEVASNVPKVVGSAVGSGSITSNIVASNSLPPATIAPPKPASWADIASKPAKQQPKLKTKNGIAGSSLPPPPIKHNMDIGTWDNKGPVAKAPSQALVQNIGQPTQGSPQPVGQQANNSPPVAQASVGQQTQPLPPPPPQPAQLSVQQQAAQPTRWVAPRNRGSGFGHNGVDGNGVGQSQAGSGSTPSEPHPVLEKLRSINNYNPKDFDWNLKHGRVFIIKSYSEDDIHRSIKYNIWCSTEHGNKRLDAAYRSMNGKGPVYLLFSVNGSGHFCGVAEMKSAVDYNTCAGVWSQDKWKGRFDVRWIFVKDVPNSQLRHIRLENNENKPVTNSRDTQEVPLEKAKQVLKIIASYKHTTSIFDDFSHYEKRQEEEESVKKERQGRGK |
